Columns and labels:
[1] = biological target: the molecule itself; experiment: crystal structure; apo RslO1, sitting drop vapor diffusion at 20 °C, 0.1 M HEPES pH 7.5, 36% polyethylene glycol 600 (seeded); space group P2(1)2(1)2(1); 1.60 Å
[2] = biological target: the molecule itself; experiment: crystal structure; apo RslO4, sitting drop vapor diffusion at 20 °C, 6% ethanol, 0.1 M ammonium acetate pH 5.5, 1.5 M phosphate pH 7.0; space group P3(2)21, two monomers in the asymmetric unit; 1.8 Å

B1: RslO1 monooxygenase, C-terminal His-tag recombinant protein (enzyme, Streptomyces bottropensis Gö C4/4)
chain: MKFGINLFPTVGPAEKSAGQHFEESLRLAELADELGFHHVKTVEHYFHEYGGYSPDPVTFLAAAAARTRRVRLVTGAVLPVFTHPLKLAGKLAMLDNISQGRLDVGFGRAFLPDEFTAFEISMDESRARFDEGVEAVRRLWAEEDVVWEGTFHRFGPVTMLPRTWQRPHPRILVATAKTPASAEAAARAGHGVMLVPSINPREQVQKTLSLYRDAASAAGFKPTEEDIHMSYNCYLAEDGQEARQKGGQASERANRALASAVSAWRETRSADYPGYEKIVEKAGRGDFDRAVAERKALVGTPDEVRAAIDDIRGWFGDFTISLQVISGAMPFEESARTMRLFAEHLLPHYAAND
notes: RslO1, FMN-dependent luciferase-like monooxygenase of the rishirilide (Rsl) gene cluster of Streptomyces bottropensis Gö C4/4; gene amplified from cosmid 4 and cloned between NdeI and XhoI of pET21a(+); predicted mass of the tagged protein 40.04 kDa; also called monooxygenase RslO1; FMN-dependent luciferase-like monooxygenase RslO1; source: E. coli BL21 (DE3) Star, pET21a(+), purified (Ni-NTA …)
[1]
  stoichiometry N: 2

B2: RslO4 monooxygenase, C-terminal His-tag recombinant protein (enzyme, Streptomyces bottropensis Gö C4/4)
chain: MAVVFVNKLTLIGDAEEFESRYEAVGAFMETQPGLVRYSLVRSTKDDSVYFNIAEWDDEDTFRKALAEPEFRRRLDALTGLIKGEPHLSLPVRQGRAAQV
notes: RslO4, monooxygenase of the rishirilide (Rsl) gene cluster of Streptomyces bottropensis Gö C4/4; gene amplified from cosmid 4 and cloned between NdeI and XhoI of pET21a(+); rslO4 gene printed as 300 bps; predicted mass of the tagged protein 12.17 kDa; also called monooxygenase RslO4; cofactor-independent monooxygenase RslO4; source: E. coli BL21 (DE3) Star, pET21a(+), purified (Ni-NTA HisTrap FF, …)
[2]
  stoichiometry N: 2
